# Biological target: original 2019-nCoV Spike RBD protein (SARS-CoV-2, original 2019-nCoV (Wuhan), UniProt P0DTC2)
# Test: Luminex bead-based competitive binding assay
row,Binder,binding result
1,"P5C3 human monoclonal antibody (P5C3 LS) (antibody, V domains shown) VH: QMQLVQSGPEVKKPGTSVKVSCKASGFTFTSSAVQWVRQARGQRLEWIGWIVVGSGNTDYAQQFQERVTITRDMSTSTAYMELSSLGSEDTAVYYCAAPNCSGGSCYDGFDLWGQGTMVTVSS VL: EIVLTQSPGTLSLSPGERATLSCRGSQSVRSSYLGWYQQKPGQAPRLLIYGASSRATGIPDRFSGSGSGTDFTLTISRLEPEDFAVYYCQQYGSSPWTFGQGTKVEIK",binds
2,"P2G3 human monoclonal antibody (P2G3 LS, human IgG1) (antibody, V domains shown) VH: EVQLVESGGGLVQPGRSLRLSCAASGFRFDDYALHWVRQAPEKGLEWVSGISWNSNNIGYAESVKGRFTISRDTAKKSLYLQMNDLRAEDTALYYCVKDRHYDSSGYFVNGFDIWGQGTLVTVSA VL: DIQLTQSPSFLSASVGDRVTVTCRASQGISSYVAWYQQKAGKAPTLLIYTASTLQSGVPSRFSGSGSGTEFTLTISSLQPEDFATYYCQQLHSYPVTFGQGTRLDIE",binds

# From article doi:10.1101/2022.03.18.484873 (bioRxiv, 2022)
